This note sets out measurements from US20220275092A1 (F STAR THERAPEUTICS, published 2022).

The target of one assay is T1, mouse LAG-3 (mouse, UniProt Q61790 24-442, limits assumed).
T1 construct: also called mLAG-3
T1 sequence (looked up): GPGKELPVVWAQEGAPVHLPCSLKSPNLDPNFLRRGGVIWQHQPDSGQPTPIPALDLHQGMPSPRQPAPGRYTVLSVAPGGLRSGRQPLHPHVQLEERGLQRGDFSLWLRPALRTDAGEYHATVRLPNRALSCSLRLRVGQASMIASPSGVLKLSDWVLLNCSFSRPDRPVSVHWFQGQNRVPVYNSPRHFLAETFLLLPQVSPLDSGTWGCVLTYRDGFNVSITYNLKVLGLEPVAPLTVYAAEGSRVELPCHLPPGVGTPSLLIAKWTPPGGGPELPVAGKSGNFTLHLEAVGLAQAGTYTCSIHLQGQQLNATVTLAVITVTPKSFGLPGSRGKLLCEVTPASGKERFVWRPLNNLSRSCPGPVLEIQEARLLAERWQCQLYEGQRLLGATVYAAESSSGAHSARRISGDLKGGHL
Briefly: Biacore (SPR).

A further assay addresses T2, mouse PD-L1 (mouse, UniProt Q9EP73 19-239, limits assumed).
T2 construct: also called mPD-L1
The assay is described as follows: Biacore (SPR). In general terms: In SPR one partner is held on a chip, and binding of the other changes the refractive index at the surface.

T2 sequence (Q9EP73 19-239 limits assumed): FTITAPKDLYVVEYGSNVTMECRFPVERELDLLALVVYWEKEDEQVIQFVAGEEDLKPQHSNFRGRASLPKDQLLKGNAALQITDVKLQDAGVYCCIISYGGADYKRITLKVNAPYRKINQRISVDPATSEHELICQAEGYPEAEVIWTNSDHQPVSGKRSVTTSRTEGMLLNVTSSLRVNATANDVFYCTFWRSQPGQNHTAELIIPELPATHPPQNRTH

B1: anti-mouse LAG-3/PD-L1 mAb^2 FS18-7-108-29/S1 (with LALA mutation) (bispecific antibody, V domains shown)
VH: not shown
VL: DIQMTQSPSSLSASVGDRVTITCRASQDVSTAVAWYQQKPGKAPKLLIYSASFLYSGVPSRFSGSGSGTDFTLTISSLQPEDFATYYCQQYLFTPPTFGQGTKVEIKR
notes: also called mouse surrogate mAb^2; mLAG-3/PD-L1
As to B1, the “Biacore binding affinity, fold lower than the binding of FS118 to hLAG-3” value with mouse LAG-3 was around 20 fold. Also, in the assay with mouse PD-L1, the “Biacore binding affinity, fold higher than the binding of FS118 to hPD-L1” value is around 10 fold.
